Experimental data as given in a protein production outcome set (Wang et al. 2014).

Assay: label from the status in PepcDB records
With “MAMALFQSAPHSLCILRLSAIGDVCNTIAAVQAIQRQWPQTRITWVTGKLEAELIQSLPDIQVIVFDKKLGWRAYTQLWQQLKSERFDALLHMQYAFRASIATLGIKARYKLGFDAARSQDFQTWFTNVKVPSPDKMHVLDGLLAFVEHLGIRDIEPKWSLTCQPDDLTWAEAQFQPEQPRLVVVPGASKAYKNWTAEGYAAVIEHAQQQGWQVILAGSPAQVERDLAAQVEQALAHPVLNLVGKSTLQQMLALLAKADLVIAPDTGPAHMANAMHTPIIGLYAHHNPERTGPYHYRHYVVSAYQEALLAETGKMPQQVDWRTRVKDPNAMQRITAQQVIAMFERAAADIMATQVND” the protein production was “failed”. With “MAMNEIALFKGVRIQPYQKYIDFMFASVLAFIFLVYRIYILFIDYKSVNKKLDILTLFAYFKPHLLYLLIGTAIIFVICKLIAQFLIRFKTKDLAEMIETQGFHNRTVIKKTTEYIPIDYKQTEYDYYPTMFYKRGKKSFVIHIKKDGSRFQDNYLELETIIEPMFNSELVEKKHIGRYLRYEFMPLKYKKRIVMNGEQESNTIFYDTKIAITHQITWDFVKAPHGLVTGITGGGKTYFLFYVIRELFRRHSEVRLLDPKVSDLSFMKRVIGDDKVADTKGQILKQLREANNEMEERFRLMNDSSDYKIGNDFRNFDMRPYFIIFDEVTAFTSTLDKKELQEMNDYLINIIMKGRQAGVFMFLTAQRPDADVIKGNVRDQLGLRVSLGNLSNDGYRMTFGQTDKEFQTIHDSDIGRGYISILGQYNEPILFDAPLMEQYDFVEDVKQILNKE” the protein production was “failed”. In the case of “MAMVASVSMAFVLVFCTILLFHFVQQSRFTTATQLESIARSVREPLSAAILKADIPEAEAILSRIQPAGIVSRADVVLPNQFQALRMRFIPERPVPVTVTRLFELPVQISLPIYSLERPANPQPLAYLVLQADSYRMYKFVMSALATLVTAYLLLVLMLTVALTWCINRLMVRPLRRIARELNDLSQQERLGHQLTLPRLHHDDEIGMLVRSYNRNQQSLVRQHDELSIQSTRFPVSELPNKAFLLAMLEQTVARPQSAALIVVACETLQDAAGVLKESQREMLLLTLVEKLRAAIPPQMVLAQVSGYDFAILADGLAEPWQAVTLSKQVLTIINERLPLHGLQLRPYASVGIAMFHAGLSAEQFYRRAVSAAVTARRKGKNQIEFFDPEQMEKAQRRLMEEHDIMTALDNQQFAIWLQPQVACASGEICGAEVLLRQRQADGSWSLPPSLIERIESCGLIIPVGYWVMEEACRQLAAWQSQGIMLPLSVNVSLLQLLEHDRGEEMLKLIARYRIAPGTLILEVTESCRMDDPQDVMARLRPLREAGVQIALDDFGMGYAGLHQLQQMKALPVDILKIDKVFIDMLPEDVSMVPAMIQLARGLSLRIVAEGVENDAQRRWLQAAGVEVLQGHLFGCALPQEAFSARYLSPAREDVNL”, the protein production is reported as “failed”. For “MAMVFCRGCAKEIHETALNCPQCGASQFPATPVKQLQENGSPWMAITSLVLGILCSLALFDDGEWDLETIVGLGMCSVAGLALGIVSINKKMPGYGIAIAGTVLSAVSLLVFFGLIVN”, the protein production was “failed”. With “MAMVVGVAMGNIALGAETVGQINEAYKTKPMLKKPLDECSMRYKTIVDVDVHTAIISIKGNPKFAEGAVVDAGVEASICEGGFTKGQSPLTSLTQRMEKICDVTRAIIRMLL” the protein production was “failed”. For “MANKNFSLTVYDSEYMETNNKIYQENMEKKIRTISEFPDKVLLKILSLLPSKDVVATGVLSKRWRSLWKDVKTFRTSSVESLQLKINPSATNKDIQSLVNMAVARSMRELRIEMICKNFELPKSFYMFSQLETVILDKVSLMDPPPDVHLPCLKRLHLLSVNSLTNVMIFTIDVPTLRILSIDNTSGKSRPKGVHGFVINTPSLSVNVVFDNPYKFLAPLGSTQYLSLCSVTSHTTYRPAVFSFIFLDHLELCLCSAEQWNLLTRILNYAPRLRVLQLKLYHKHCVKDTKNLMGNQPDLIPKSLSSHLEILEWRQYNDTAQEREAAKYILANASGLRKATFYTESTEKHGMLKEVRMCGQRFKNMSACVK”, the protein production was “failed”. For “MANKNMRNTTTKVEALIESCRSEGKWHRVIELTDELKTGSPHNECLANFLVGEARLESYLEENALASDSNFGRAKSGLAEARRFLHLALGESGQKAGIALDAYLLLAKLCFACGEYEQSLDNFVKAELNTLAEKELTLRSLKILAESYAIKGLCLEQQTTKPSSKFKKAEKDTEMISCFERASDLGLLYLQEYDLVSGSSGSSNNSTAGSTLNVNASTVQPSSSSFAISSTIPASGPSGLEMNRRMGAILETALQRAPIVLIKTEKLQEAVERYRIMLNAIETRATQSLRLTLARQLAEVLLRGVSGTIYSPPFTGKSGGGTLRGGSSKKLWKPRKYAARQQFNPRNQQEEVILLLLIAEALAVRDTVLSQSPEFRQARQHAMGNVTAVYDLLTLATVRWGLVQLLNESFEKALKFSFGEQHVWRQYGLSLMAAEKHSHALRVLQESMKLTPSDPLPCLLASRLCYESLETVKQGLDYAQQALKREVKGLRPSRSQLFVGIGHQQLAIQSNLKSERDACHKLALDALERAVQFDGNDHLAEYYLSLQYALLGQLAEALVHIRFALALRMEHAPCLHLFALLLTSSRRPREALGVVEDALHEFPDNLQLLHVKAHLQLHLEDAETALGTVQHMLAVWRDVYEAQLAGEEEKHSDTKSGVHLAHSSQMSDKDSNSVYAASLAAVSRVEQALSEAASSLSSFTQRPGPRRPWMLQIEIWLLLADVYLRIDQPNEALNCIHEASQIYPLSHQIMFMRGQVHVYLEQWFDAKQCFLNAVAANPNHTEALRALGEAHLVLGEPRLAEKMLKDAAKLDPSCPKIWFALGKVMEILGDFHASADCFATSLQLEPSCPVLPFTSIPLVFE”, the protein production was “failed”. In the case of “MANKTKSKSLLEKMWRIKWWLLSIFTVLFLLFALFFPLNNYYVELPGGAFDTKEVLTVNKKADDSKGSYNFVAVAQTKATLALMLYTQFNDFAKLQTAEEATGNYSDEDFMRINQFYMETSQNQAVYQGLTLAGKEVSLEYMGVYVLQVADDSSFKGVLNIADTVTAVNGKTFDNSTDMIKYVQGLKLGSKVKVTYMRDGKEKTATGKIIKIANGKNGIGIGLTDHTEIKSPENVKFKLDGVGGPSAGLMFTLAIYDQVSGQDLKAGRKIAGTGTIEKDGAVGDIGGAYLKVKSAADSGADIFFVPNNLVTKEMKKADPDAKTNYQEAKEAAEKLGTKMKIVPVKTAQEAIDYLKKTK”, the protein production is reported as “failed”. With “MANLKSLPVGDKAPEVVHMVIEVPRGSGNKYEYDPDLGAIKLDRVLPGAQFYPGDYGFIPSTLAEDGDPLDGLVLSTYPLLPGVVVEVRVVGLLLMEDEKGGDAKVIGVVAEDQRLDHIQDIGDVPEGVKQEIQHFFETYKALEAKKGKWVKVTGWRDRKAALEEVRACIARYKG” the protein production was “not failed”. With “MANLLSTCTSESGNIQHISPQNAGWEYVGFDVWQLKAGESITLPSDERERCLVLVAGLASVKAADSFFYRIGQRMSPFERIPAYSVYLPHHTEAKVTAETDLELAVCSAPGFGELPVRLISPQEVGVEHRGKGRNQRLVHNILPDSQLADSLLVVEVYTNAGATSSWPAHKHDTAVEGQETYLEETYYHRFNPPQGFCLQRVYTDDRSLDECMAVYNRDVVKVPKGYHPVATIAGYDNYYLNVMAGPLRKWRFTWEENHAWINSPDYPR” the protein production was “not failed”. For “MANRSHHNAGHRAMNALRKSGQKHSSESQLGSSEIGTTRHVYDVCDCLDTLAKLPDDSVQLIICDPPYNIMLADWDDHMDYIGWAKRWLAEAERVLSPTGSIAIFGGLQYQGEAGSGDLISIISHMRQNSKMLLANLIIWNYPNGMSAQRFFANRHEEIAWFAKTKKYFFDLDAVREPYDEETKAAYMKDKRLNPESVEKGRNPTNVWRMSRLNGNSLERVGHPTQKPAAVIERLVRALSHPGSTVLDFFAGSGVTARVAIQEGRNSICTDAAPVFKEYYQKQLTFLQDDGLIDKARSYEIVEGAANFGAALQRGDVAS”, the protein production was “not failed”. In the case of “MANTATDQRADTLMLVHVPADRKKTYAISLMRDLWIDIPGVGESKINAALAYGGVPLMVQTVESLLQQRIDHVAMIDFQGFKGLTDALGGVEVDVRIPFAPSSGPKAGQVYDAGKQTLNGDEALAFVRERKAFSDGDYQRVRNQQAYLKAIIGKVIARETLTNPVTISNMVSAVSPFVSVDKDFDAAAIGSLALSMKDVRAQDTVMFTLPTLGTGTSPDGQSIVLADTTAIADVTAALAKDQVDAYITAHALDKGFLEHHHHHH”, the protein production is reported as “not failed”. In the case of “MANTYGGVIFLGIEEKPKGRFSVTGIAVPERVLKALWDGLNNRQRISINLLTDKMVEVIEIQGKQVIRIQVPRARRAQRPVYVGQNPLTGTYRRNYEGDYLCDEETIKRMLAEQVEEVRDARLLENYGFDDIEPNTLKAYRNQYDLTKALSALVRDGFLESGGIARGTFYFFPGEPPNAEADLVAQNYKFVEKSSPEDLLLGIIPKEIFDDLKPSSDDLKPSSDDLEPSSDDLEPSSDDWQSLMAIAVTIRNKGKVSTDIMEATILRLCQGRFLNHKQLQELLDRSYNTLRLGYLSKMHKKGQLELRYPDKLTHPNQGYRTKNSSSSDF”, the protein production is reported as “failed”. In the case of “MAPLNYKTITSRSILSKVLVRATQQWPTDKTLNKQLSELYGAYVNSFVSKFKDKHVITISLEVVNEKFLKDKTPLFEKGLDTLKEIIWNPLIKDRCFDHTYVAQEKSLLSKKLEAMEDNKAQYSFLQLMNYMFKQEPYRYIATGQLEQIPQVTSESLYDTYLSMVQNDDCAIYVVGNINKEEVTQLILDKFAIKPFYLENKESTEITPSFDQPQYIIEKDDVDQAKLNLGYRFPSYYGKSNYYAFIVLNMMFGGDPSSVLFNEVREKQSLAYSIHSQIDGKNGFLFVLSGVSAEKYEQAKDTVIKEFDKIKNGDFDSNKIELAKKIIISHRHEASDRPKSIIEILHNQLLLNRQQTDQDFINAVNQVTKKDVIKLANEAVLDTIYVLTKGDQH”, the protein production is reported as “failed”. In the case of “MAPLPLAVIVYEPGDVLEEILAAARDRLVGLPDVRIAGLVPRLGPRHSNGRASFWLDDIVRGDSIALSQDLGPGSTSCILNADGLATARMRLAEAIAVRPDLVLFGRFAKEEIAGRGIREEIGLALAQDVPALVAVERAMLPGWIAFAAEGWTMLPADADAVVAWFVALAAERQSADTLEHHHHHH”, the protein production is reported as “failed”. For “MAPPSDSDPREPSPPLFQGRGLTKRFGSFVANQAIDLDIAGGEVHALLGENGAGKSTLVKLITGLLQPDDGRMIWRGTPISFAGPAEARACGIAAVSQHFALFDNLTVVENVALGLDRRISVGRLATELEQISQRYGLPLDPKREVWRLSVGERQRIEIVRALLQNPQLLILDEPTAVLTPAEADRLFDVLQRLRADGRALLYISHKLDEVKRLASVATILRAGRVVGSCDPRQESAASMARMMVGSDVTAPKQSSHSIGGPLLSVSGLTQRPDDPHGVTLRDIALEVRSGEIVGIAGVAGNGQDELFAALSGETPIAQSDVIHIAGEAAGSLSINQRRRLGAAFVPEQRLGHATVPTMSLSDNALLTGHATGALVKFGLVNRGAALALVDRVSEAFDVRKASRDPEAARLSGGNLQKFIVGREILRQPRLLIVDQPSWGLDAGAASAIRQALLDLAASGAAVLVISQDLDELIEIADRIAVMFHGRLSPPRPVSEIGRDQLGLLMGGSGWPAEVRDVAGALEHHHHHH”, the protein production was “failed”. In the case of “MAPQPFDIDTPSLRVFLPAPELATGRAIVACPGGGYGGLAVNHEGYDWAPYFNKQGIALIVLKYRMPHGDRTLPISDAEAAMKMARDSADVWNLNPYDIGIMGSSAGGHLASTIATHTRPELRPNFQILFYPVITMDKSYTHIGSHDNLLGKDAFAELETEFSNEKQVTKETPRAFIAYSDDDKTVPPANGVNYYLGLHKNHVPAVLHIYASGGHGWGIRENFIYLEHHHHHH”, the protein production is reported as “failed”. In the case of “MAQENPLWMRHCAISPDGTTIAFTYKGDIFTVPVSGGKATQITTNPAFDTTPIWSPDSKQIAFASDRMGSMDVFIVSKDGGEPRRLTTFSGGETPVAFTDAGHILFTADIMPSTEDAGFPSNGQFQQIYQIPVSGGRPVMFSSMPMECISINKEGTILYQDKKGYEDYWRKHQKSPIARDIWMLRPGQTPRYEKQTTFIGEDREPVWAPDGKSFYYLSEENGTFNVYQRTPGSDTSKQVTHHKQHPVRFLEHHHHHH”, the protein production is reported as “failed”.
